This note sets out measurements from US20260234276A1 (DOMAIN THERAPEUTICS, published 2026).

Values joined by “and” are separate entries in the source; they are usually repeats but may differ in a detail not shown here. Equal entries are not always repeated.

The target of assay [1] is T1, pm6 (human, sulfated tyrosines at Y16 and Y17). The assay is described as follows: ELISA on coated peptide. As to the method:
(§1) The specific binding properties of antibodies were evaluated by ELISA with coated CCR8 related peptides (500 ng/mL) in carbonate/bicarbonate buffer. Different peptides were used as described in Table 1 (see Example 1). Each anti-CCR8 mAb was tested at 1 μg/mL then diluted at 1/10. After an incubation at room temperature during 90 min, unbound mAbs were removed by washings. […] After washings, 3,3′,5,5′-tetramethylbenzidine (TMB) (Interchim, Montlugon, France) was added for 15 min. Then the optical density (OD) was determined by using a multiplate reader (Tecan, Lyon, France) and correlated with mAb reactivity on the panel of coated peptides.

For assay [2], the target named is T2, pm8 (human, sulfated tyrosines at Y15, Y16 and Y17). The assay is described as follows: ELISA on coated peptide. As to the method:
as §1
On the technique in general: An ELISA detects its analyte on a solid surface through an enzyme-linked reagent.

Assay [3] deals with T3, pm3 (human, sulfated tyrosine at Y17). As to the kind of experiment: ELISA on coated peptide. The method, then:
as §1

The target in assay [4] is T4, pm5 (human, sulfated tyrosines at Y15 and Y17). The assay is described as follows: ELISA on coated peptide. As to the method: as §1
Assay [5] has as its target T5, human CCR8 (human, UniProt P51685 1-355).
T5 construct: the cells are named under assay; also called hCCR8
As to the kind of experiment: flow cytometry, hCCR8 transfected CHOK1 cells. A general note: In flow cytometry, cells or beads pass a laser one at a time.

For assay [6], the target named is T5, human CCR8. As to the kind of experiment: flow cytometry, HUT78 cells (native CCR8). As to the method:
The same staining protocol was applied on human CCR8 transfected CHO cell line versus wild type CHO cell line, cutaneous T cell lymphoma HUT78 cell line and human activated T cell model.
Briefly, 1·10⁵ cells per well in a 96 well plate were incubated with a dilution of unconjugated anti-CCR8 mAb at 10 μg/mL then diluted at 1/3.33, 4 dilution points (during 30 min at 4° C.). […] To determine EC50 value, 8 concentrations of anti-CCR8 mAb were tested. Unbound antibodies were washed away with PBS (Invitrogen by Thermofisher Scientific, Illkirch-Graffenstaden, France) supplemented by 2% Fetal Bovine Serum (Invitrogen by Thermofisher Scientific, Illkirch-Graffenstaden, France) and 2 mM EDTA (Invitrogen by Thermofisher Scientific, Illkirch-Graffenstaden, France). Subsequently, cells are centrifuged (5 min at 400 g) and bound antibody is detected with F(ab′)₂-Goat anti-Mouse IgG (H+L) Cross-Adsorbed Secondary Antibody, Alexa Fluor 488 (dilution 1/500) (Invitrogen by Thermofisher Scientific, Illkirch-Graffenstaden, France) or with F(ab′)₂-Goat anti-Human IgG Fc Secondary Antibody, PE (Invitrogen by Thermofisher Scientific, Illkirch-Graffenstaden, France) (dilution 1/1000) at 4° C. for 30 min. Detection reagent is washed away and cells are centrifuged (5 min at 400 g) and resuspended in 30 μL PBS. Bound detection antibody is quantified on a MacsQuant16 (Miltenyi, Gladbach, Germany) (B1 or B2 channel, 5000 events per acquisition).

Assay [7] addresses T5, human CCR8. The assay is described as follows: cell-based or functional assay.
The target in assay [8] is T5, human CCR8. As to the kind of experiment: cell-based or functional assay. The source holds these as a separate data set.
For assay [9], the target named is T5, human CCR8. As to the kind of experiment: cell-based or functional assay. The source holds these as a separate data set.
For assay [10], the target named is T1, pm6. The assay is described as follows: ELISA on coated peptide [cont.]. The essentials: (§2)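 Peptides coated at 500 ng/mL in carbonate/bicarbonate buffer; anti-CCR8 mAbs applied at 1 μg/mL and a 1/10 dilution for 90 min at room temperature. After washing, TMB substrate was developed for 15 min and OD read as a measure of mAb reactivity.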
The target of assay [11] is T2, pm8. As to the kind of experiment: ELISA on coated peptide [cont.]. The gist of the method: as §2
The target in assay [12] is T3, pm3. The assay is described as follows: ELISA on coated peptide [cont.]. The essentials:
as §2

Assay [13] has as its target T4, pm5. The assay is described as follows: ELISA on coated peptide [cont.]. The gist of the method:
as §2

In assay [14] the target is T5, human CCR8. As to the kind of experiment: cell-based or functional assay. This is another data set of the same source.
Assay [15] has as its target T5, human CCR8. As to the kind of experiment: cell-based or functional assay. The source holds these as a separate data set.
Assay [16] concerns the target T5, human CCR8. The assay is described as follows: competition HTRF on HEK-293 cells with hCCR8; blocked ligand CCL1-AF647 [cont.]. A general note: In TR-FRET formats the signal depends on donor and acceptor labels being close together.

T3 sequence (peptide, as listed by the source): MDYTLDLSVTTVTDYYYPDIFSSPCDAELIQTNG
T2 sequence (peptide, as listed by the source): as above
T4 sequence (peptide, as listed by the source): as above
T1 sequence (peptide, as listed by the source): as above

B1: 3-2 (antibody, V domains shown)
VH: EVQLVESGGGLVKPGGSLKLSCAASGFTFSSYAMSWVRQTPEKRLEWVATINSGGSYTFYPDSVKGRFTISRDNAKNTLYLQMSSLRSVDTAIYYCARVSGYDERFAYWGQGTLVTVSA
VL: DVLMTQTPLSLPVSLGAQASISCRSSQSIVHSNGNTYLEWYLQKPGQSPKLLIYKVSNRFSGVPDRFSGSGSGTDFTLKLSRVEAEDLGVYYCFQGSHVPPTFGGGTKLEIK
Consider B1, for which the binding result with pm6 [1], in the assay with pm8 [2], with pm3 [3] and in the assay with pm5 [4] was “binds” each time. In addition, the “% positive cells” value in the assay with human CCR8 [5] was determined as 51.2%. Also, the “MFI fold change to isotype ctrl” value in the assay with human CCR8 [5] worked out at 3.41 fold.

B2: 3-83 (antibody)
heavy: not shown
light: DIVMTQAAPSLSVTPGESASISCTSSKSLLHSNGNTYLYWFLQKPGQSPQLLIYRMSNLASGVPDRFSGSGSGTAFTLKISRVEAEDVGVYYCMQHREYPFTFGSGTKLEIKRTVAAPSVFIFPPSDEQLKSGTASVVCLLNNFYPREAKVQWKVDNALQSGNSQESVTEQDSKDSTYSLSSTLTLSKADYEKHKVYACEVTHQGLSSPVTKSFNRGEC
A word on the EC50: it is the concentration at which the effect is half-maximal. Low readings indicate greater potency, high ones weaker potency. B2: in the assay with human CCR8 [6], the “% of labelled cells” value was found to be 34% and the EC50 was determined as 0.4 nM. Further, the “ADCP % Max of phagocytosis, monocyte-derived macrophages Donor 9” value in the assay with human CCR8 [7] came out at 8.29%. For the same molecule, in the assay with human CCR8 [8], the “ADCC % Max lysis, NK cells Donor 1” value worked out at 22%; the “ADCC % Max lysis, NK cells Donor 2” value is 20%; the “ADCC EC50, NK cells Donor 1” value amounted to 0.00224 nM; the “ADCC EC50, NK cells Donor 2” value stood at 0.00216 nM.

B3: 3-85 (antibody)
heavy: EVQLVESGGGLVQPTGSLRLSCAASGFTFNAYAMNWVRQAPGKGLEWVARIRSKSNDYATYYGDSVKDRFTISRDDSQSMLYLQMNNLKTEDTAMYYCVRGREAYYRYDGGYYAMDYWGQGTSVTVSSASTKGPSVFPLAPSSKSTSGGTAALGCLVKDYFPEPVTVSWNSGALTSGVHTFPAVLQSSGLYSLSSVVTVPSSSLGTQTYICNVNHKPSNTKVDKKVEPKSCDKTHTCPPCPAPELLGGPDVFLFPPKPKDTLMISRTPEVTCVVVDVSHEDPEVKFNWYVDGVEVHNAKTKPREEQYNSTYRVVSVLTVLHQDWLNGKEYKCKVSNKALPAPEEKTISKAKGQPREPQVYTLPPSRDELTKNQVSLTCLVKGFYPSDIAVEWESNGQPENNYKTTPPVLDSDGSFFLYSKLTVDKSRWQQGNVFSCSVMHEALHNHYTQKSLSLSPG
light: DIVMTQAAPSVSVTPGESVSISCTSSKSLLHSNGNTYLYWFLQRPGQSPQLLIYRMSNLASGVPDRFSGSGSGTAFTLRISRVEAEDVGVYYCMQHREYPFTFGSGTKLEIKRTVAAPSVFIFPPSDEQLKSGTASVVCLLNNFYPREAKVQWKVDNALQSGNSQESVTEQDSKDSTYSLSSTLTLSKADYEKHKVYACEVTHQGLSSPVTKSFNRGEC
Consider B3, for which the “ADCP % Max of phagocytosis, monocyte-derived macrophages Donor 9” value with human CCR8 [7] is 7.27%. In the assay with human CCR8 [8], the “ADCC % Max lysis, NK cells Donor 1” value is 31%; the “ADCC % Max lysis, NK cells Donor 2” value was 26%; the “ADCC EC50, NK cells Donor 1” value amounted to 0.0733 nM; the “ADCC EC50, NK cells Donor 2” value was 0.0904 nM.

B4: 3-21 (antibody, V domains shown)
VH: QVQLKESGPGLVAPSQSLSITCTVSGLSMNDYVVTWIRQPPGKGLEWLGVIWGGGNTYYNSDLKSRLSITKDNSKSQVFFKMSSLQTDDTAVYYCARRHRDYALDYWGQGISVTVSS
VL: DVVMTQTPLSLPVSLGDQASISCRSSQSLVYSNGNTYLHWYLQKPGQSPKLLIYKVSNRFSGVPDRFSGSGSGTDFTLKISRVEAEDLGVYFCSQSTYVPPTFGGGTKLEIK
For the molecule B4, in the assay with human CCR8 [9], the “IC50 (Gi2 BRET, pH 6.5)” value is 0.414 µg/ml and 2.76 nM; the “IC50 (Gi2 BRET, pH 7.4)” value is 0.359 µg/ml and 2.4 nM. In addition, in the assay with pm6 [10], the binding result is “binds”. Further, the binding result with pm8 [11] is listed as “binds”. For the same molecule, the binding result with pm3 [12] is “binds”. Also, the binding result with pm5 [13] was “binds”. Besides, in the assay with human CCR8 [14], the “Top plateau value (% of hCCL1 100 nM) with 5 µg/mL mAb, Protocol #3” value is 133%. In the assay with human CCR8 [15], the “hCCL1 (100 nM) residual response, Protocol #2, mAb 0.08 µg/mL” value was found to be 99%; the “hCCL1 (100 nM) residual response, Protocol #2, mAb 0.4 µg/mL” value worked out at 97%; the “hCCL1 (100 nM) residual response, Protocol #2, mAb 10 µg/mL” value worked out at 97%; the “hCCL1 (100 nM) residual response, Protocol #3, mAb 0.05 µg/mL” value was 99%. In addition, in the assay with human CCR8 [15], the “hCCL1 (100 nM) residual response, Protocol #3, mAb 0.5 µg/mL” value stood at 84% and the “hCCL1 (100 nM) residual response, Protocol #3, mAb 5 µg/mL” value was 75%. Also, in the assay with human CCR8 [5], the “% positive cells” value is 85.2% and the “MFI fold change to isotype ctrl” value was determined as 11.9 fold.

B5: 3-1 (antibody, V domains shown)
VH: EVQLVETGGGLVQPKGSLKVSCAASGFTFNTNAMNWVRQAPGKGLEWVARIRSKSNNYATYYADSVKDRFIISRDDSQSMLYLQMNNLKTEDTAMYYCVRGGYYGTSVYFDVWGAGTTVTVSS
VL: DIVMTQAAPSVPVTPGESVSISCRSSKSLLHSNGNTYLYWFLQRPGQSPQLLIYRMSNLASGVPDRFSGSGSGTAFTLRISRVEAEDVGVYYCMQHLEYPFTFGGGTKLEIK
Turning to B5, the binding result in the assay with pm6 [1], with pm8 [2], with pm3 [3] and with pm5 [4] was “binds” in each case. For the same molecule, in the assay with human CCR8 [9], the “IC50 (Gi2 BRET, pH 6.5)” value is > 4.5 µg/ml and > 30 nM. The “IC50 (Gi2 BRET, pH 7.4)” value with human CCR8 [9] was > 4.5 µg/ml and > 30 nM. For the same molecule, the “% positive cells” value with human CCR8 [5] amounted to 38.8%. The “MFI fold change to isotype ctrl” value with human CCR8 [5] came out at 2.61 fold.

B6: 3-76 (antibody, human IgG1, kappa, V domains shown)
VH: EVQLVESGGGLVQPGRSLRLSCTASGFTFNTYAMNWVRQAPGKGLEWVARIRSKSNNYATYYAASVKGRFTISRDDSKSIAYLQMNSLKTEDTAVYYCVRGREAYYRYDGGYYAMDVWGQGTTVTVSS
VL: DIVMTQAAPSLPVTPGESASISCRSSKSLLHSNGNTYLYWFLQKPGQSPQLLIYRMSNLASGVPDRFSGSGSGTAFTLKISRVEAEDVGVYYCMQHLEYPFTFGSGTKLEIKR
notes: humanized, human IgG1 kappa
For B6, in the assay with human CCR8 [9], the “IC50 (Gi2 BRET, pH 6.5)” value is 0.024 µg/ml and 0.157 nM; the “IC50 (Gi2 BRET, pH 7.4)” value is 0.048 µg/ml and 0.318 nM. Besides, the binding result with pm6 [10] is “binds”. Further, the binding result with pm8 [11] is given as “binds”. The binding result with pm3 [12] was “binds”. Further, the binding result with pm5 [13] is on record as “binds”. For the same molecule, in the assay with human CCR8 [15], the “hCCL1 (100 nM) residual response, Protocol #2, mAb 0.08 µg/mL” value was 88%; the “hCCL1 (100 nM) residual response, Protocol #2, mAb 0.4 µg/mL” value was 82%; the “hCCL1 (100 nM) residual response, Protocol #2, mAb 10 µg/mL” value is 64%; the “hCCL1 (100 nM) residual response, Protocol #3, mAb 0.05 µg/mL” value was determined as 88%. In the assay with human CCR8 [15], the “hCCL1 (100 nM) residual response, Protocol #3, mAb 0.5 µg/mL” value came to 71% and the “hCCL1 (100 nM) residual response, Protocol #3, mAb 5 µg/mL” value is 70%. Besides, in the assay with human CCR8 [16], the “IC50 (read off the curve)” value is around 0.02 µg/mL.
